Data as given in IntAct's records for PubMed 26586190.

B1: Sestrin-2 (Homo sapiens), P58004 (parent)
chain: MIVADSECRAELKDYLRFAPGGVGDSGPGEEQRESRARRGPRGPSAFIPVEEVLREGAESLEQHLGLEALMSSGRVDNLAVVMGLHPDYFTSFWRLHYLLLHTDGPLASSWRHYIAIMAAARHQCSYLVGSHMAEFLQTGGDPEWLLGLHRAPEKLRKLSEINKLLAHRPWLITKEHIQALLKTGEHTWSLAELIQALVLLTHCHSLSSFVFGCGILPEGDADGSPAPQAPTPPSEQSSPPSRDPLNNSGGFESARDVEALMERMQQLQESLLRDEGTSQEEMESRFELEKSESLLVTPSADILEPSPHPDMLCFVEDPTFGYEDFTRRGAQAPPTFRAQDYTWEDHGYSLIQRLYPEGGQLLDEKFQAAYSLTYNTIAMHSGVDTSVLRRAIWNYIHCVFGIRYDDYDYGEVNQLLERNLKVYIKTVACYPEKTTRRMYNLFWRHFRHSEKVHVNLLLLEARMQAALLYALRAITRYMT
partner: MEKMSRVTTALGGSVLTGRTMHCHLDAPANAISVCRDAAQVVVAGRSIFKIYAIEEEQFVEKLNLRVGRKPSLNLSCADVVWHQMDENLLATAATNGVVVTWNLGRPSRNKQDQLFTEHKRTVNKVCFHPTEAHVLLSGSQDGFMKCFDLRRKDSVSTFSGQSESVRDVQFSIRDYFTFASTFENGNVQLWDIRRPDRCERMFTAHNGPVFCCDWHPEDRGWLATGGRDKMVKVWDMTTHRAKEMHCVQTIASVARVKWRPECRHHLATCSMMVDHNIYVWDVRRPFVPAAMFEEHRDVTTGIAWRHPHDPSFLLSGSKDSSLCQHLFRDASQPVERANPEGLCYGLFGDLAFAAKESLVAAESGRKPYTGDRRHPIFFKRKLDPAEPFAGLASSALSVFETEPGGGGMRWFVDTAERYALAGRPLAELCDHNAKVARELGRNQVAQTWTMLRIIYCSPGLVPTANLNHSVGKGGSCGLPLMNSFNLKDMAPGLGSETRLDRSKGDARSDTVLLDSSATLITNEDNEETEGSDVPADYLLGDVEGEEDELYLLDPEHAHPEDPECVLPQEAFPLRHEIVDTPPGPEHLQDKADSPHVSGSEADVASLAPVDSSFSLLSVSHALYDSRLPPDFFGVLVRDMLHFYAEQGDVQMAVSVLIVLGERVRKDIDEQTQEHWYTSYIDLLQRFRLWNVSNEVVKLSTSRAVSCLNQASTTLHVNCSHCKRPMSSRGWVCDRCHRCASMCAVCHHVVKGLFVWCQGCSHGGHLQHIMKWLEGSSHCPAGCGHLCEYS

Variants of: B1
Conditions: with wdr24_human WDR24, Q96S15

| effect of a mutation on the interaction | Variant |
| --- | --- |
| disrupting interaction strength | D406A;D407A |
